Patent US20250388696A1 (NAVIGO PROTEINS, published 2025)
Where no end group is shown, it is not given here.

T1: human fibroblast activation protein (hFAP) expressed on the surface of HEK293-hFAP cells (human, UniProt Q12884 1-760)
T1 construct: whole, on cells; FAP overexpressing HEK293 cell line
T1 sequence (looked up): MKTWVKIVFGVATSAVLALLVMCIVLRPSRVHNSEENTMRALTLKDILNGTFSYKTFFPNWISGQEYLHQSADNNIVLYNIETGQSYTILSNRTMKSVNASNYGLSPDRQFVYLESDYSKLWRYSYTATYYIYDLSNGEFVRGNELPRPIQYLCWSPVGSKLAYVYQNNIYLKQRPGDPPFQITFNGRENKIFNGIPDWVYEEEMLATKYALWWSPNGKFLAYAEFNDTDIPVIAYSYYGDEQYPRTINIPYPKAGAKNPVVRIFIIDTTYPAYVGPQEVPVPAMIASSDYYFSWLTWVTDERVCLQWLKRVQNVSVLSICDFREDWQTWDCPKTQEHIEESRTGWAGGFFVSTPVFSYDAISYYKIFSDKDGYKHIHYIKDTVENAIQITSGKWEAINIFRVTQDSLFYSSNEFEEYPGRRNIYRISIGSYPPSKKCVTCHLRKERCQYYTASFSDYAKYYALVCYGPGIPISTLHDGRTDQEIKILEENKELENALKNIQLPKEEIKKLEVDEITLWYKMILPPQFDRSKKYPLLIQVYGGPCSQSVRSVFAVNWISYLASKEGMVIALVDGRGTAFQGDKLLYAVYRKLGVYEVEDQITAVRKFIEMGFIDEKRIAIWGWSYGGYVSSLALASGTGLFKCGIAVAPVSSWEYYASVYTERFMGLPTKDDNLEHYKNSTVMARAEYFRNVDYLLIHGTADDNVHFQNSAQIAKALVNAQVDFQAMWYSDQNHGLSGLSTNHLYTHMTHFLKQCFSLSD


Experiments:
[1] = target: T1, human fibroblast activation protein …; test: flow cytometry on HEK293-hFAP cells
Description: Fusion proteins were tested with a concentration of 1 μM, 100 nM, 10 nM, 1 nM or 0.1 nM on hFAP expressing HEK293-hFAP-cells. To exclude an unspecific binding, fusion proteins were also incubated on control cells HEK293-pEntry with the same concentrations. […] Supernatants were removed after 45 min, cells were washed in blocking buffer and 100 μl/well rabbit anti-StrepTag antibody (GenScript; A00626), 1:300 diluted in FACS blocking buffer were added. […] Flow cytometry measurement was conducted on the Guava easyCyte 5HT device from Merck-Millipore at excitation wavelength 488 nm and emission wavelength 525/30 nm.

mouse serum albumin = target: T2, mouse serum albumin (mouse, UniProt P07724 25-608); test: SPR, MSA immobilised
T2 construct: also called MSA
Description: (§1) Recombinant protein A, HSA, MSA or target (either ED-B or Her2) was immobilized on a High Capacity Amine sensor chip (Bruker) after NHS/EDC activation with a Sierra SPR-32 system (Bruker). The chip was equilibrated with SPR running buffer (PBS 0.05%, Tween pH 7.3). Injection of ethanolamine after target immobilization was used to block free NHS groups. To determine the binding of fusion proteins to FAP, the Fc-tagged target was injected with 60 or 30 nM to Protein A coupled spots followed by the injection of fusion proteins.
(§2) Binding proteins were applied to the chip in serial dilutions with a flow rate of 30 μl/min. Upon binding, analyte accumulated on the surface increasing the refractive index. This change in the refractive index was measured in real time and plotted as response or resonance units versus time. The association was performed for 120 seconds and the dissociation for 180 seconds. After each run, the chip surface was regenerated with 30 μl regeneration buffer (10 mM glycine pH 2.0 or pH 1.5) and equilibrated with running buffer. Binding studies were carried out using the Sierra SPR-32 system (Bruker); data evaluation was operated via the Sierra Analyser software, provided by the manufacturer, by the use of the Langmuir 1:1 model (RI=0).

human serum albumin = target: T3, human serum albumin (human, UniProt P02768 25-609); test: SPR, HSA immobilised
T3 construct: also called HSA
T3 sequence (P02768 25-609 limits assumed): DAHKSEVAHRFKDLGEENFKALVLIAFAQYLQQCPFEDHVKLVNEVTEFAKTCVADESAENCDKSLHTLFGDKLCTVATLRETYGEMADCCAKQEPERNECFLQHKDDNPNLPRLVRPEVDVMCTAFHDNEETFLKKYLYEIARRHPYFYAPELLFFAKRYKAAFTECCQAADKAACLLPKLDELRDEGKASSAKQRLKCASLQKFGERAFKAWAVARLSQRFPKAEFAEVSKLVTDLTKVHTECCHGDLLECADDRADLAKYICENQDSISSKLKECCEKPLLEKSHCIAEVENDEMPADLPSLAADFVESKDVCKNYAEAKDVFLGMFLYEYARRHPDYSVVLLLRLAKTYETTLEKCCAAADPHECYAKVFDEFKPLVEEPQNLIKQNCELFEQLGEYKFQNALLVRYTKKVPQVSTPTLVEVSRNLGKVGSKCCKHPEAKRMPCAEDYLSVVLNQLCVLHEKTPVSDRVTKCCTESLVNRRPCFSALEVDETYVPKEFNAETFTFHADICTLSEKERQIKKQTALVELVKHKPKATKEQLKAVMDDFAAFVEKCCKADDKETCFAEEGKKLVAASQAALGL
Description: as §1, §2

Binder | binding result [1] | Kd (mouse serum albumin) | Kd (human serum albumin)
fusion protein 218699 (designed binder, not shown: small tags and cut ends, also called CID 218699) chain (part 1 of 2): not shown chain (part 2 of 2): LAEAKVLALKELDKYGISNYYKNLINNAKTVEGVKALKEAIVAA | binds |  | 
fusion protein 218691 (designed binder, not shown: small tags and cut ends, also called CID 218691) chain (part 1 of 2): not shown chain (part 2 of 2): LAEAKVLALKELDKYGISNYYKNLINNAKTIEGVKALKAQIVAA | binds |  | 
LAEAKVLALKELDKYGISNGYKNLINNAKTIEGVKALKDEIVAA (designed binder, not shown: small tags and cut ends, also: part of fusion protein, targeting moiety, linker, tag and order not given here) [Fusion proteins with albumin binding domain c45 (SEQ ID NO: 35)] |  | ≥ 100 nM | ≥ 100 nM
LAEAKVLALKELDKYGISNYGKNLINNAKTIEGVEALKDAILAA (designed binder, not shown: small tags and cut ends, also: part of fusion protein, targeting moiety, linker, tag and order not given here) [Fusion proteins with albumin binding domain c50 (SEQ ID NO: 38)] |  | ≥ 100 nM | ≥ 100 nM
LAEAKVLALKELDKYGISNDYKNLINNAKTIEGVEALKDAILAA (designed binder, not shown: small tags and cut ends, also: part of fusion protein, targeting moiety, linker, tag and order not given here) [Fusion proteins with albumin binding domain c49 (SEQ ID NO: 37)] |  | ≥ 100 nM | ≥ 100 nM
fusion protein 218704 (designed binder, not shown: small tags and cut ends, also called CID 218704) chain (part 1 of 2): not shown chain (part 2 of 2): LAEAKVLAIKELDKAGISNYYFNLINNAKTVEGVKDLKAQIVAA | binds |  | 
